Where two headings read alike, the source gives them in different places.
Experiments:
C3b (human) = test: ELISA; decay acceleration assay: 250 ng C3b immobilised on Maxisorp; C3bBb formed with 400 ng Factor B and 25 ng Factor D, 2 h 37 °C; increasing concentrations of regulator, 40 min 37 °C; Bb remaining bound to C3b detected with anti-factor B polyclonal antibody
complement C3b [1] = target: complement C3b (UniProt P01024); test: ELISA; 5 µg/mL C3b or C5 immobilised on Maxisorp plates at 4 °C overnight; increasing concentrations of regulator (0.195-50 nM) in sample buffer (2% BSA in TBS, 0.05% Tween-20); detected with anti-His-tag antibodies; absorbance normalised to the highest concentration; IC50 from a 4PL nonlinear regression
complement C5 [2] = test: as above
complement C3b [3] = target: complement C3b (UniProt P01024); test: as above; remark: listed apart in the source
complement C5 [4] = test: as above; remark: listed apart in the source

Chain of human factor H, plasma-derived (hFH) (P08603 19-1231): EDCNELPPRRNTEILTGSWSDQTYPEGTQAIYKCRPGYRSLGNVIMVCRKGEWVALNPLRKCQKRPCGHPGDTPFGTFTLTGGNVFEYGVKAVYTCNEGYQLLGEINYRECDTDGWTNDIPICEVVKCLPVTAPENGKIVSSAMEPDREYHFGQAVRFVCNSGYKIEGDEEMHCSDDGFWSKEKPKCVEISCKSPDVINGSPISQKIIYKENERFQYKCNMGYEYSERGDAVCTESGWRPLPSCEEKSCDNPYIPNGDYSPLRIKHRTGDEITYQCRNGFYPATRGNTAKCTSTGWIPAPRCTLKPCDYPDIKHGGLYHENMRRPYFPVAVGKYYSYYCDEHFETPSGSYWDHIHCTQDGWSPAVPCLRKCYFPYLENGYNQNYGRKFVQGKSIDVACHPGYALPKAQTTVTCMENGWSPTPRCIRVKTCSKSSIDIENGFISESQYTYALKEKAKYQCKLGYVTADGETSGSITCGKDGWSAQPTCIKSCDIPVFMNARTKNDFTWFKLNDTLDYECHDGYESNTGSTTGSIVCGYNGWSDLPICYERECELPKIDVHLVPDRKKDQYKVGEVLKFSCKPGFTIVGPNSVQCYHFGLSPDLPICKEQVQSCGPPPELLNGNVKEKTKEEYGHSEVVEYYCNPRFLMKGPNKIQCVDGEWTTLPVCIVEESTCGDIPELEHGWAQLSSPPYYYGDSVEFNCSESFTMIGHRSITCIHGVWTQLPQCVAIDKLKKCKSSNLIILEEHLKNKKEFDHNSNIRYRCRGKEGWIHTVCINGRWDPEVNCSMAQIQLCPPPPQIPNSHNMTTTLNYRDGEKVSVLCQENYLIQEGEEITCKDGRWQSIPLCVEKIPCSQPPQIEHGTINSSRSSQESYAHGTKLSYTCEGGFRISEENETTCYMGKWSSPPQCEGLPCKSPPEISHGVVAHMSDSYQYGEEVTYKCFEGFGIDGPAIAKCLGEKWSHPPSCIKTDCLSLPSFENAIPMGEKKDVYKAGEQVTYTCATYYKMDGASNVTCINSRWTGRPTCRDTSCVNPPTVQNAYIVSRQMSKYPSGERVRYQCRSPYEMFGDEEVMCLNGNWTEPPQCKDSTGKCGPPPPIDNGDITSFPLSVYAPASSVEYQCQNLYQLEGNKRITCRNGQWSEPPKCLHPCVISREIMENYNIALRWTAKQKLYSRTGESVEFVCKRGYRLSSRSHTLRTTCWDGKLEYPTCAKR

| IC50 (C3b (human)) [nM] | IC50 (complement C3b [1]) [nM] | IC50 (complement C5 [2]) [nM] | IC50 (complement C3b [3]) [nM] | IC50 (complement C5 [4]) [nM] | Substance |
| --- | --- | --- | --- | --- | --- |
| 7.8 |  |  |  |  | MFHR1^I62 (FHR1_(1-2):FH1-4:FH_(19-20), isoleucine at position 193 = position 62 of factor H) (from UniProt Q03591 19-143; P08603 18-264; P08603 1107-1231) |
|  | 4.7 | 26.8 | 16.1 | 52.5 | MFHR1^I62 (FHR1_(1-2):FH1-4:FH_(19-20), variant with isoleucine at position 62 of factor H) |
| 9.4 |  |  |  |  | MFHR1^V62 (FHR1_(1-2):FH1-4:FH_(19-20)) (from UniProt Q03591 19-143; P08603 18-264; P08603 1107-1231) |
|  | 6.32 | 26.8 |  |  | MFHR1^V62 (FHR1_(1-2):FH1-4:FH_(19-20), valine at position 62 of factor H) |
| 3.8 |  |  |  |  | human factor H, plasma-derived (hFH) (from UniProt P08603 19-1231) (natural protein) |
